Source: patent publication US20130019326

Experiments:
[1] = tested on: FLAG-PPAR gamma, wild type
[2] = tested on: purified histone H1 (Millipore)
[3] = tested on: Rb protein (Cell Signaling Technology)

Row | Substance | in vitro CDK kinase assay, phosphorylation of the substrate [1] | in vitro CDK kinase assay, phosphorylation of the substrate [2] | in vitro CDK kinase assay, phosphorylation of the substrate (FLAG-PPAR gamma S273A) | in vitro CDK5 kinase assay, phosphorylation of the substrate [3]
1 | active cdk1/cdc2 kinase | Other members of the cdk protein family did not phosphorylate PPAR gamma |  |  | 
2 | active cdk2/cyclin A kinase | Other members of the cdk protein family did not phosphorylate PPAR gamma |  |  | 
3 | active cdk2/cyclin E kinase | Other members of the cdk protein family did not phosphorylate PPAR gamma |  |  | 
4 | active cdk4/cyclin D1 kinase | Other members of the cdk protein family did not phosphorylate PPAR gamma |  |  | 
5 | active cdk5/p35 kinase | The cdk5 site in murine PPAR gamma can be phosphorylated when incubated in vitro with cdk5 and its activating cofactor p35 | PPAR gamma is phosphorylated as efficiently under these conditions as is histone H1, a known substrate of the cdk5/p35 complex | Mutation of serine 273 to alanine completely blocks phosphorylation of PPAR gamma | incubation with rosiglitazone does not inhibit the ability of cdk5 to phosphorylate the Rb protein
